The record followed here is article PMC8776769, “Structure and mechanism of the RNA dependent RNase Cas13a from Rhodobacter capsulatus”.

The target of the series is T1, RcCas13a (Rhodobacter capsulatus, UniProt D5AUW0 1-1285).
T1 sequence: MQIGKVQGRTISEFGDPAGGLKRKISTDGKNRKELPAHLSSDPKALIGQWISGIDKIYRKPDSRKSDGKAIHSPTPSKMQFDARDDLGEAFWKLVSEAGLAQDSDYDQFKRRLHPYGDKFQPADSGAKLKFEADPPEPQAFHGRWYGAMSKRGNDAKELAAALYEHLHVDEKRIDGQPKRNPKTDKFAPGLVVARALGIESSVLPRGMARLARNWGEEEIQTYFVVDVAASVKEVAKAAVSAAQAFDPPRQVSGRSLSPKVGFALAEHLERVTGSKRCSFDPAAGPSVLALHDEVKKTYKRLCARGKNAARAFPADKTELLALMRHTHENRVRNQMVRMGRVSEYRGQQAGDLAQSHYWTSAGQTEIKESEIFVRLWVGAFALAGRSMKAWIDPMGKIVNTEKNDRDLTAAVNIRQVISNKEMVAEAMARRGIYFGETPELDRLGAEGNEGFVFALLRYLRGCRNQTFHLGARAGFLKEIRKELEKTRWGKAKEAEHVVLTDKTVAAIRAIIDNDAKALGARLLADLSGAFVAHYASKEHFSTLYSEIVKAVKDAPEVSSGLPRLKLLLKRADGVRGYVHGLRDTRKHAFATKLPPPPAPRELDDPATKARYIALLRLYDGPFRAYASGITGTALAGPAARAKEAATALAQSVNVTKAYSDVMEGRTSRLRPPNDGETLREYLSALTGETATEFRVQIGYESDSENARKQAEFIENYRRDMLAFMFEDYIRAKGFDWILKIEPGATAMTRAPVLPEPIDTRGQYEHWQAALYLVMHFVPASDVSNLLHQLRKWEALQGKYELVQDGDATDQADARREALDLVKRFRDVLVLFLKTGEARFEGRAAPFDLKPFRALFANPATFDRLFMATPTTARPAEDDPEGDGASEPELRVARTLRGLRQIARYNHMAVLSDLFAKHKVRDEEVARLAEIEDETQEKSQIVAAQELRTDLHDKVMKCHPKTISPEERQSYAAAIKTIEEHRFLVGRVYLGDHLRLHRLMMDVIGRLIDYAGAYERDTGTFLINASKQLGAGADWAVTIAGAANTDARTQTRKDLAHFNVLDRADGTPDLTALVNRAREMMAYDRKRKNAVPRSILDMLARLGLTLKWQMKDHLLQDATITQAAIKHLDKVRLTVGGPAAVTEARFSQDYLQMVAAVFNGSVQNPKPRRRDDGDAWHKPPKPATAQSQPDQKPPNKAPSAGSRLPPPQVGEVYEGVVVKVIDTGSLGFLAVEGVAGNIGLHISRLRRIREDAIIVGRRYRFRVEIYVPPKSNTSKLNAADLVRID
Briefly: X-ray crystal structure (2.1 A); binary complex, no target RNA; Complex co-purified by Ni affinity and SEC: 50 mM Hepes pH 8.0, 500 mM NaCl, 10% glycerol, 1 mM DTT, 4-8 C; crystallization conditions not in material. The following applies: protein: recombinant; tags: C-terminal His6, not removed for the crRNA complex; hairpin.

B1: crRNA for crystallization (structured_RNA)
RNA: GCCUCACAUCACCGCCAAGACGACGGCGGACUGAACCUUCAUUACCUCUGUUUG
Turning to B1, the binding result is recorded as “binds”.
